{
  "source": "paper PMC4232046",
  "about": "“The Janus transcription factor HapX controls fungal adaptation to both iron starvation and iron excess” (The EMBO Journal, 2014)",
  "proteins": {"B1": {"name": "Aspergillus fumigatus HapX(24–158) (domain or fragment, UniProt Q4WER3 24-158, looked up)", "chain": "SPSPGPGTPGSITSKEWVIPPRPKPGRKPATDTPPTKRKAQNRAAQRAFRERRAARVNELEEQIKKIEDEHEIHIAAFKEQITNLSREVEQCRSEMTWWRDRCHALEKEVSVERSAKEAIVKEFRSSLSDREAVR", "notes": "Cloned in pMAL-c2X with an extended N-terminus including a TEV site; Theoretical mass of the dimer 31.36 kDa; also called peptide corresponding to residues 24–158 of HapX"}},
  "biological_target": "the molecule itself",
  "experiment": "SEC-MALS; static light scattering (miniDawn TREOS, Optilab T-rEX refractometer) after Superdex 200 10/300 GL; molar mass by ASTRA 6",
  "data": [
    {"protein": "B1", "values": [
      {"measurement": "stoichiometry N", "value": 2}
    ]}
  ]
}
